What was measured:
[1] = biological target: T1, GST-GUK, fusion protein of GST and the GUK domain of SAP102 (Rattus norvegicus (Rat), UniProt Q62936); assay: GST pulldown
T1 chain: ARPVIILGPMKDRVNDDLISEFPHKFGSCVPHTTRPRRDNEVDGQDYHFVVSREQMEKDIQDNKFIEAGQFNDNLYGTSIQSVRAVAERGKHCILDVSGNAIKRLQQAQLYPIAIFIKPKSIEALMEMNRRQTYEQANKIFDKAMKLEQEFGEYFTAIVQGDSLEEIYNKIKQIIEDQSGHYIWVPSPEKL

[2] = biological target: T2, GST-SH3, fusion protein of GST and the SH3 domain of SAP102 (Rattus norvegicus (Rat), UniProt Q62936); assay: GST pulldown / amylose pulldown
T2 chain: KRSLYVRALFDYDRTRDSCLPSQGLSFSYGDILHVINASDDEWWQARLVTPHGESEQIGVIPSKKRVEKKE

[3] = biological target: T3, GST-SH3-GUK, fusion protein of GST and the combined SH3-GUK domain of SAP102 (Rattus norvegicus (Rat), UniProt Q62936); assay: GST pulldown / amylose pulldown
T3 chain: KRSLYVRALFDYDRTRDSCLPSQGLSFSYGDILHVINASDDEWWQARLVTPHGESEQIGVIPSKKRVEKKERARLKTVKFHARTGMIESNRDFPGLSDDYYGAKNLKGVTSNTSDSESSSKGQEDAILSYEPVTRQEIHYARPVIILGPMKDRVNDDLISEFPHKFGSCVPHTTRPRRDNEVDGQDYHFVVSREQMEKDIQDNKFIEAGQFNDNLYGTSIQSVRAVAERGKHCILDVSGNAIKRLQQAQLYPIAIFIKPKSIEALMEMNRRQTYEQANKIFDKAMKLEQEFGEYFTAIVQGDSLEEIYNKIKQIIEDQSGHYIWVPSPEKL

Measured: binding result

B1: MBP-A2A-CT, fusion protein comprising maltose-binding protein and the carboxyl terminus of the A2A receptor (protein)
chain: RIREFRQTFRKIIRSHVLRQQEPFKAAGTSARVLAAHGSDGEQVSLRLNGHPPGVWANGSAPHPERRPNGYALGLVSGGSAQESQGNTGLPDVELLSHELKGVCPEPPGLDDPLAQDGAGVS
binds: all assays above

Reference: PMC3979375 (2014)
